Results published in the supplement of paper PMC10266784.

B1: library; numbered along this chain (parent)
chain: MAAAAAAAAEQQSSNGPVKKSMREKAVERRSVNKEHNSNFKAGYIPIDEDRLHKTGLRGRKGNLAICVIILLFILAVINLIITLVIWAVIRIGPNGCDSMEFHESGLLRFKQVSDMGVIHPLYKSTVGGRRNENLVITGNNQPIVFQQGTTKLSVENNKTSITSDIGMQFFDPRTQNILFSTDYETHEFHLPSGVKSLNVQKASTERITSNATSDLNIKVDGRAIVRGNEGVFIMGKTIEFHMGGNMELKAENSIILNGSVMVSTTRLPSSSSGDQLGSGDWVRYKLCMCADGTLFKVQVTSQNMGCQISDNPCGNTH

Variants of: B1
Assay: SGCB cell-surface expression functional score (HA stain, bin4 vs bin1, normalised to synonymous) (log10 ratio); higher = more cell-surface SGCB (functional)
In short: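 The functional score is a log ratio of variant frequency in the highest versus the lowest intensity bin, expressed as a median over codons and duplicate transductions. Codon-saturation libraries of HA-tagged, YFP-fused human beta-sarcoglycan were transduced by lentivirus at MOI <0.1 into HEK293 cells stably expressing alpha-, gamma- and delta-sarcoglycan, and the cells were stained on ice with Alexa Fluor 647 anti-HA, fixed and sorted into four 5% intensity bins before amplicon sequencing. Synonymous variants were scaled to mean 0, SD 0.5 within each section.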

Variant | SGCB cell-surface expression functional score (log10)
G315P | -0.04
G315Y | 0.26
G315T | 0.15
G315M | 0.54
G315R | 0.03
G315Q | 0.1
G315A | -0.11
G315S | -0.28
G315E | 0.04
G315L | -0.02
G315W | 0.43
G315C | -0.05
G315N | 0.02
G315I | -0.24
G315K | -0.14
G315F | -0.43
G315D | -0.41
G315V | -0.01
G315H | 0.04
S310E | -0.2
S310L | 0.07
S310C | -0.2
S310P | -0.54
S310N | 0.59

Variant | SGCB cell-surface expression functional score (log10)
S310K | 0.24
S310F | 0.06
S310I | 0.04
S310G | 0.34
S310H | -0.5
S310A | -0.09
S310W | 0.98
S310T | -0.25
S310Y | 0.49
S310Q | 0.27
S310D | -0.01
S310V | 0.14
S310M | -0.01
S310R | -0.02
D311C | 0.1
D311R | 0.34
D311N | 0.01
D311K | -0.22
D311P | -0.48
D311S | -0.06
D311I | 0.18
D311V | 0.04
D311L | 0.05
D311E | -0.14

Variant | SGCB cell-surface expression functional score (log10)
D311Y | -0.64
D311H | 0.31
D311M | 0.69
D311A | 0.29
D311G | 0.11
D311T | -0.93
D311F | 0.43
D311Q | -0.87
D311W | 0.22
N312W | 0.57
N312G | -0.13
N312R | 0.27
N312A | -0.03
N312L | 0.12
N312P | -0.09
N312F | 0.03
N312D | 0.1
N312M | 0.01
N312C | -0.41
N312V | 0.13
N312S | 0.08
N312Q | -0.46
N312I | 0.12
N312E | 0.35

Variant | SGCB cell-surface expression functional score (log10)
N312Y | 0.54
N312K | 0.25
N312H | -0.15
N312T | 0.06
C314G | -0.29
C314H | -0.18
C314D | 0.34
C314Q | 0.15
C314S | -0.27
C314N | -0.61
C314W | 0.19
C314M | -1.88
C314Y | -0.32
C314I | -0.11
C314T | -0.78
C314K | 0.06
C314E | -0.03
C314A | 0.07
C314V | 0
C314F | -0.43
C314P | -0.09
C314R | -1.01
C314L | -0.5
Q308N | -0.38

Variant | SGCB cell-surface expression functional score (log10)
Q308M | 0.09
Q308D | 0.17
Q308G | -0.76
Q308A | -0.46
Q308E | 0.05
Q308V | -0.04
Q308T | -0.05
Q308C | -0.4
Q308F | -0.31
Q308I | -0.15
Q308Y | 0.02
Q308S | -0.37
Q308P | -1.21
Q308K | -0.5
Q308H | -0.29
Q308R | 0.12
Q308L | -0.83
Q308W | -0.34
P313M | -0.49
P313Y | -0.27
P313G | -0.17
P313W | -0.38
P313K | -0.22
P313E | 0.11

Variant | SGCB cell-surface expression functional score (log10)
P313C | 0.15
P313L | -0.14
P313F | -0.03
P313I | -0.92
P313Q | -0.3
P313V | 0.23
P313S | -0.17
P313N | 0.01
P313R | -0.02
P313A | 0.41
P313D | -0.42
P313H | -0.07
P313T | 0.06
I309W | 0.15
I309Y | -0.22
I309P | -0.24
I309D | -1.61
I309S | 0.1
I309H | -0.32
I309L | 0.13
I309C | -1.19
I309K | -0.24
I309M | -0.08
I309N | 0.02

Variant | SGCB cell-surface expression functional score (log10)
I309F | -0.22
I309V | -0.63
I309T | 0.29
I309Q | -0.01
I309A | 0.27
I309R | 0
I309E | -0.14
I309G | -0.41
N316I | -0.06
N316H | 0.47
N316D | 0.19
N316P | 0.29
N316S | -0.05
N316R | 0.15
N316G | -0.83
N316L | -0.05
N316C | 0.11
N316F | 0.15
N316K | 0.03
N316A | -0.18
N316M | 0.48
N316Q | 0.13
N316E | -0.68
